Reference: PMC5150220, “Multivalent contacts of the Hsp70 Ssb contribute to its architecture on ribosomes and nascent chain interaction” (Nature Communications, 2016)
Ends that are not written are not given here.

B1: Ssb1 (wild type, recombinant) (natural protein)
chain: not shown
notes: Hsp70 Ssb1 of Saccharomyces cerevisiae, wild type, expressed as His6-Smt3-Ssb1 and cleaved with Ulp1; The nucleotide state was set by pre-treatment with ATP (SsbATP) or apyrase (SsbADP) in one experiment; also called wt Ssb1; full length Ssb1; source: E. coli BL21(DE3)*/pRARE, purified (Ni-IDA, Ulp1 cleavage, Resource Q anion exchange); not shown: His6, N-terminal, cleaved; Smt3, N-terminal, …
B3: APPY peptide (biotinylated) (peptide)
peptide: SALLQSRLLLSAPRRAAATARYC
modifications: also: biotinylated, position not given here
notes: canonic Hsp70 substrate peptide APPY

How the values were obtained:
Conditions in all cases: both partners purified
[1] = biological target: B3; assay: SEC; as a1, but Ssb pre-incubated with apyrase (SsbADP) before the peptide was added, compared with Ssb pre-incubated with ATP (SsbATP) and treated with apyrase after the peptide; shifted APPY signals quantified
[2] = biological target: T1, Ssb1Δ601–13 (recombinant) (S. cerevisiae, UniProt P11484 1-600); assay: fluorescence polarisation; fluorescence anisotropy; Ssb1 wt or mutant (10 uM in the methods; titrated up to 100 uM in the text) with 1 uM IAANS-labelled peptide in HKM buffer (25 mM HEPES, 150 mM KCl, 5 mM MgCl2, 1 mM DTT, 10% glycerol), 1.5 h at 30 °C
T1 construct: Purified as the wild type ('His6-Smt3-Ssb1 construct (or mutations thereof)'); also called mutant Ssb1; source: E. coli BL21(DE3)*/pRARE, purified (Ni-IDA, Ulp1 cleavage, Resource Q anion exchange); not shown: His6, N-terminal, cleaved; Smt3, N-terminal, cleaved
T1 sequence (P11484 1-600, stated change not applied): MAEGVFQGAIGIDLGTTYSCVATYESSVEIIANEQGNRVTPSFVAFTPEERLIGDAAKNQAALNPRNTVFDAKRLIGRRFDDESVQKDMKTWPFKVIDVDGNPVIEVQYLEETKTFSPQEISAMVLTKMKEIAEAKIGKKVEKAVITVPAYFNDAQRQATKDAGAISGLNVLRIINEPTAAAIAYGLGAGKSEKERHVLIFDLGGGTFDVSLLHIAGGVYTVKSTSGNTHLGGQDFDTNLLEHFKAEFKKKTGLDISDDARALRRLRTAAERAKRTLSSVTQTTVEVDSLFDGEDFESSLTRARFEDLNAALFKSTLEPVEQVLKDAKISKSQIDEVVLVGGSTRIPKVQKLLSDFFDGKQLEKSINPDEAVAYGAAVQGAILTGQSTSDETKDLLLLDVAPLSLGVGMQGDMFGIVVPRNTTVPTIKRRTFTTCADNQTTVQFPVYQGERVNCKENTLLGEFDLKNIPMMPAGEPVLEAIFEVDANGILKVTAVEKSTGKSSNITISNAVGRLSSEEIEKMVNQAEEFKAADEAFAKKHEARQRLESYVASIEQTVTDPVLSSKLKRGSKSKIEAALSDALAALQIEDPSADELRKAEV

[3] = biological target: B1; assay: as above
[4] = biological target: T1, Ssb1Δ601–13 (recombinant); assay: SEC; 2 uM biotinylated peptide incubated 30 min at RT with 4 uM purified Ssb1 in Ssb buffer (30 mM HEPES KOH pH 7.4, 50 mM KAc, 5 mM MgCl2, 1 mM beta-mercaptoethanol), then apyrase for 1 h; Superose 12; fractions dot-blotted, peptide detected with StrepTactin-HRP and Ssb with antibody
[5] = biological target: B1; assay: as above

B1
shifted APPY signal of SsbADP relative to SsbATP [1]: 71%

B2: IAANS-labelled peptide σ32-Q132-Q144-C (peptide)
peptide: QRKLFFNLRKTKQC
modifications: also: IAANS label, position not given here
notes: sigma-32 (heat shock sigma factor RpoH), residues Q132-Q144; The unlabelled peptide was used in 100-fold excess as the chase in the release assay; also called model peptide
binding result [2]: binds | binding result [3]: binds

B3
binding result [4]: binds | binding result [5]: binds
